In the DeepSol protein solubility set:

experiment: soluble on expression in E. coli; label from the status in PepcDB or PDB records

Row | Sequence | soluble on expression in E. coli
1 | MEKLENFWTRDELNTFFDYVTPERDVEQFTMFRVLAYSGIRKGELLALTWKDINFEDNTLRVNKTLTQGLGGKLIVQPPKSRAGRRTIDLDDSTMRYLRQWKGVQRETFLGMGFNTNNVDQLVFASNRNHFRSMNTPTKWLNKAIKATGLKHISIHGFRHTHASLLYQSGVGLKETQQRLGHSRADSSVTLDVYTHTTEQQNVAALQRFENYVEAKLEHHHHHH | not soluble
2 | MEAVVDVVDVEEVVEDVDVVVVDQDAVAVVDLNVVVLVVELVAVLDVVLAADHAVVDVVADVVVDAVDVEVEVVSVVPFKNFELMKPIVHLGLKKDHLMTNVSPIIYSPFIYYHDS | not soluble
3 | SNAEMSYELAQHGRSTLPRELAVYALEGPFFFAAAETFERVMGSIQETPQILILRLKWVPFMDITGIQTLEEMIQSFHKRGIKVLISGANSRVSQKLVKAGIVKLVGEQNVYPVFEGALSAALTEIEAQP | soluble
4 | SVCAEAYNPDEEEDDAESRIIHPKTDDQRNRLQEACKDILLFKNLDPEQMSQVLDAMFEKLVKEGEHVIDQGDDGDNFYVIDRGTFDIYVKCDGVGRCVGNYDNRGSFGELALMYNTPRAATITATSPGALWGLDRVTFRRIIVKNNAKKRKMYESFIESLPFLKSLEVSERLKVVDVIGTKVYNDGEQIIAQGDSADSFFIVESGEVRITMKRKGKSDIEENGAVEIARCLRGQYFGELALVTNKPRAASAHAIGTVKCLAMDVQAFERLLGPCMEIMKRNIATYEEQLVALFGTNMDIVEPTA | soluble
5 | MAHHHHHHMYYIYFENVKDEKEKKECEEFIYQIYMMENIKKDAILKLKNEKNENLYLLYLYYKYYYMNDKENVLNEIKQLNTSSCNANILKSRIFFDNDLLDECFDLLENGTIEIKAAKIFFLLNINRQDIVNEIIKDFLHMNEEIPIIKIVLAIYYLFNDNNKESFLIFDDLESLYGSMINDHSNIILNGKAVASILNYEFNDAKEFLKNQINNGDILYNLITCSLYLYELDEANEYLTKLYDNYSSHDSLKVLKKIDDEVDNFVSEF | not soluble
6 | MAHHHHHHMLRHFQRDVRGGSSSRRKLPRSVVGERSEEGSGTSKDPFVLSLREIPNRSGCYHCVEDCCECLWITELLAVCYGSLPTRRQVMTYRKRERCAKSILPPFVARIVRVAKISSQDTFYDLGCGNGSVLFQVALLTGARCVGVEINERNATVAQDAWRRLRPMIEARRGEPVEVEIICADFCSLMRDEKFFGSSPVIWAANLLMPGPVNHYLSERFRLLPKGSRVLCLEDLYPHGRSVAKFRDPDAFEMFAMTDFKWQTKSVEWCDTEGPFSMYTKRT | not soluble
7 | MTVIALRHLGPAERKSFARHLAGGDFPGKGAWDDGTVVLDRVLDGLGDEAGRALIEGALAKASRMVVVTLGGEAAARWTPEVLGPAFVYLLGEAIDADSPAVALAFLDGPGRPRLFAPRFSVMVPVYNHRDLIGACLDSIAAQSWPLWEAVVVDDGSTDGVATLLTERAAADPRLRWSSQANGGTGAALNACLAMAREEWIAWLSSDDLFAPDKLAAHAALLRRDGLAPAFHHTAVIRRNDAGEEQVVAPLGPLMTGSAGLRRLAMTSVNLIQGISIVVHRDLFAQTAGFDPRNRFTQDYAMWVRLMERTDPVYLPLVTAVTRVGAAQTTARHYQRTRAEAIAAILGALRDFSAGAPDDREARLEAVAALVMLASSPHGFLARYGLQGWYVARAMGLAAEAKVLGATFADVSARLGPWSVGHIHDPQAMGHLAMIESVFREDKAAAPIDPFRILTRMLISPTIPADLAEAITGFLRGDLPQPLEHHHHHH | not soluble
8 | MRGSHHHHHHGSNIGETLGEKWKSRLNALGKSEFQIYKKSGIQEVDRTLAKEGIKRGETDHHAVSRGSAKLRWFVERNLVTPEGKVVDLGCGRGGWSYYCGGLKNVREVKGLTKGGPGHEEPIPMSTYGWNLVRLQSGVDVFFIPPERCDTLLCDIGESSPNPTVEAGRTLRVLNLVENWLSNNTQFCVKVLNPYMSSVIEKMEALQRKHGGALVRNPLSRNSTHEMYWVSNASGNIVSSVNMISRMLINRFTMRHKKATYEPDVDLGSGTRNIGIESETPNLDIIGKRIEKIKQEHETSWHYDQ | soluble
9 | KRRLEVKGEVNSITVYDDFAHHPEAILATLTALRDKVGGGVRILAVLEPRSNTMKMGVHKDDIAPALGRADAVFMLQPEQLSWEVADIANQCVQPAYWNANLDRLVDMIVAKAQPTDHILVMSNGSFGGIHQKILDKLKLK | not soluble
10 | MVLPPQNRLCNEVCLEAGQSPNSNELYLNSSELLKTELNNDINLCLVDFCERHNIDYRGMVNRLVTNNMYFFYIWGKYALSKA | not soluble
11 | TDPDCDRIGVLVKNKSGEYKVLTGNQTGVLLTHYIISSLKDTGKLPANGAVIKTIVTSEMTRKITEDYDMKLIDVLTGFKYIGEKIKEFEETNSNTYLFGFEESYGCLAGTFVRDKDAVVAATLVCEMALYYKNKGLSLDDALNELYEKYGF | not soluble
12 | MEHKEVVLLLLLFLKSGQGEPLDDYVNTQGPSLFSVTKKQLGAGSREECAAKCEEDKEFTCRAFQYHSKEQQCVIMAENRKSSIIIRMRDAVLFEK | not soluble
13 | MSKYGCPTSDTDPNSVTMITKRGPVNKTLKSAAQLNAAQRAGVDISTEKKTMSGGNRQHSANKNTLRLDEETEELHHQKVALSLGKVMQQARATKGWTQKDLSTQINEKPQVVGEYESGKAVPNQQIMAKMERALGVKLRGKDIGMPFSTKPPAKK | not soluble
14 | MASENNGSRSDSESITAPKADSTVVEPRKIALITGITGQDGSYLTEFLLGKGYEVHGLIRRSSNFNTQRINHIYIDPHNVNKALMKLHYADLTDASSLRRWIDVIKPDEVYNLAAQSHVAVSFEIPDYTADVVATGALRLLEAVRSHTIDSGRTVKYYQAGSSEMFGSTPPPQSETTPFHPRSPYAASKCAAHWYTVNYREAYGLFACNGILFNHESPRRGENFVTRKITRALGRIKVGLQTKLFLGNLQASRDWGFAGDYVEAMWLMLQQEKPDDYVVATEEGHTVEEFLDVSFGYLGLNWKDYVEIDQRYFRPAEVDNLQGDASKAKEVLGWKPQVGFEKLVKMMVDEDLELAKREKVLVDAGYMDAKQQPLEHHHHHH | soluble
15 | MSLTGGISAFGRMVWEGIQIAHEEKPTVLGEEVELVLLDTRSEKTEAANAAARAIDKEKVLAIIGEVASAHSLAIAPIAEENKVPMVTPASTNPLVTQGRKFVSRVCFIDPFQGAAMAVFAYKNLGAKRVVVFTDVEQDYSVGLSNFFINKFTELGGQVKRVFFRSGDQDFSAQLSVAMSFNPDAIYITGYYPEIALISRQARQLGFTGYILAGDGADAPELIEIGGEAVEGLLFTTHYHPKAASNPVAKKFVEVYKEKYGKEPAALNALGYDAYMVLLDAIERAGSFDREKIAEEIRKTRNFNGASGIINIDENGDEGHHHHHH | not soluble
16 | AIANVWLLGRGELRRRHDDVLQLERAFLTDRTGLHFVNARSSEDLLALAESRRAEQQWPVLDAEWISPVGTDTCDDLVWQNLESTLDGRPDTFYSTAGFEAGNTLSGTGELAPGEAFLAYRFWRPVRVYAVQLRAFQADFHPGRPVYPFQVARVGVGCSLQAGMSLSYGADASAPGTSCNYRCFCTTEQQTLVFDDPMVGVYLVICLKGFPQQQLTDRLHYAAVSGIRVFGEPISSPALENELSCLISRGFILDGRDAARWLDLRSAQEHAAPMHIPEDEVI | soluble
17 | MGSDKIHHHHHHMTKKVLILGAHGKIARLAEKEFLEKTDDSLKLFLRKASRLNPVQPDRETVIEGDATNLEQLVAAMQGVDAVYANLAGGDIKQQAQAVVKAMDKVGIKRLVWISTLGIYDEVPGKFGEWNNSTLGSYITNYRAAADVIEDSDLDYTIVRPAWLTNNDEVDFEVTQKGEVFKGTEVSRKSIAHIVVELIQNNTELKHSIGVNKPNTDGDKPSWY | not soluble
18 | MSLQVEGLSINLATIREQCGFAEAVDVCLKHGITAIAPWRDQVAAIGLEEASRIVRSNGLKLTGLCRGGFFPAPDAAGREKAIDDNKRAVDEAAELGADCLVLVVGGLPGGSKNIDAARSMVLEGIAAVLPHARAAGVPLAIEPLHPMYAADRACVNTLGQALDICEALGPGVGAAIDVYHVWWDPDLNEQIARAGRMKAILAHHICDWLVPTKDMLTDRGMMGDGVIDLKAIRREVEAAGFHGAQEVEIFSADNWWKRPAEEVIATCVERYRSCCRDDEGHHHHHH | soluble
19 | MGSDKIHHHHHHMMAVAHKGEAQFDFYWRQQGEWVEEPNQRRGGESGVQRLNDADGKLLYAKRQVGHIYRSLLHPFGRPTVLRELDALNSFEQLGVRVPRIVFCGAQRDAEHQWRALLVSEALDGFVELDTWHAEGARERYPQVVHERMLKDLADNLARMHLGHWQHGCLYGKHVFIKVIGEGEQARVEVALLDLEKCRRRISCQRAAGNDLRQLRRHSSLNDAEWRTLLYFYKMAFGSAVKGLE | not soluble
20 | MSLTISILGARVIDPNSGLDQVTDLHLDGGRIVAIGAAPAGFSASRTIQADGLVAAPGLVDLGVSLREPGYSRKGNIASETRAAVAGGVTSLCCPPQTKPVLDTSAVAELILDRAREAANSKVYPVGALTKGLEGEQLAELVALRDTGCVAFGNGLKEIPNNRTLARALEYAATFDLTVVFHSQDRDLAQGGLAHEGAMASFLGLPGIPESAETVALARNLLLVEQSGVRAHFSQITSARGARLIAQAQALGLPVTADVALYQLILTDESLREFSSLYHVQPPLRTAADRDGLREAVKSGVIQAISSHHQPHERDAKLAPFGATEPGISSVELLLPLAMTLVQDGLLDLPTLLARLSSGPAAALRLPAGELKVGGAADLVLFDPQASTVAGEQWFSRGENCPFIGHCLPGAVRYTLVDGHICHEAEGHHHHHH | soluble
21 | MGSDKIHHHHHHMPLPRGSSLVRIPGNIPVGLDMKERLAYFEYDPLVSGQRAYAVAALLPQGFTRTLLPACVGSSGEALLPLLGYAAVGLKEGKIYVAAVQSDEHRKWHPHYYNTERLPAKINRMLKKYPGNMILHQLARCSLEYGCFTAQNIFYQRWEGGIPSMKACNAACIACISEDHCGTASPQNRLDFAPTVQEIVEVASEHLLRARDAIISFGQGCEGEPALNGKRLSQAIRRIRDLCAQGTINMNTNAGYCEGVKLMTDAGMDSMRVTIFSAIEENYMTYHCPQDYSLADVEYSITYAREHGVKISLNLLTFPGFTDRMEEVEALLEFVRKNQVDMIQFRNLNIDPEFLMRIFPGKSPVLGISNFVKLLESELPGVRIGSYTHPVHR | not soluble
22 | MSDLPRKAVTRTAKLAALPLGFAGRATWGLGKRIVGESAEIVGQQLQQRTAEQLFKVLGELKGGAMKFGQALSVFESALPEEVAGPYRAALTKLQEAAPPMPTRTVHSVLAERLGEDWQELFLEFEDKPAAAASIGQVHRGVWQDGREVAVKVQYPGAGEALLSDLNQLSRFARLLGPLVPGMDIKPLITELKDRVSEELDYDLEAQAQRTHAEVFDDDPDIVVPDVIHQCEQVLITEWIDGIPMSEIISNGTQEQRDRAGQLLAHFLFSGPARTGLLHADPHPGNFRLLPGGPRGEDDWRLGVLDFGTVDRLPGGLPEPIGEALRMTLDGEAEAVYEMLCAEGFVKESIELAPDAVLEYLLPIIEPARVDAFTFTRGWMRSQAARIGDPRSPAYQLAKQLNLPPAYLLIHRVTLSTIGVLCQLGATVRLRDELEEWLVGFVAEGEAEVEEGEEADEDVYETEGTAAEALEHHHHHH | not soluble
23 | LPRELRPLMKKPLGILYRGKGRDTIEKFAGELSSPTKLISVGDVTTFHLLEAGIIPDICIVDDRTKRKPVSSDVSVRNRDKVYEEVSVDNPAGIITDELIRTLCEAFASEKLLRIFVRGEEDLATLPVILLAPPGSVVLYGQPDEGVVFVEVTEKKKEEIRALFEKLISK | not soluble
